Test results as given in patent US11994512B2, “Single-cell genomic methods to generate ex vivo cell systems that recapitulate in vivo biology with improved fidelity” (Massachusetts Institute of Technology, priority 2018, dated 2024).

B1: O88554 (protein, UniProt O88554 1-559, looked up)
chain: MAPRRQRSGSGRRVLNEAKKVDNGNKATEDDSPPGKKMRTCQRKGPMAGGKDADRTKDNRDSVKTLLLKGKAPVDPECAAKLGKAHVYCEGDDVYDVMLNQTNLQFNNNKYYLIQLLEDDAQRNFSVWMRWGRVGKTGQHSLVTCSGDLNKAKEIFQKKFLDKTKNNWEDRENFEKVPGKYDMLQMDYAASTQDESKTKEEETLKPESQLDLRVQELLKLICNVQTMEEMMIEMKYDTKRAPLGKLTVAQIKAGYQSLKKIEDCIRAGQHGRALVEACNEFYTRIPHDFGLSIPPVIRTEKELSDKVKLLEALGDIEIALKLVKSERQGLEHPLDQHYRNLHCALRPLDHESNEFKVISQYLQSTHAPTHKDYTMTLLDVFEVEKEGEKEAFREDLPNRMLLWHGSRLSNWVGILSHGLRVAPPEAPITGYMFGKGIYFADMSSKSANYCFASRLKNTGLLLLSEVALGQCNELLEANPKAQGLLRGKHSTKGMGKMAPSPAHFITLNGSTVPLGPASDTGILNPEGYTLNYNEFIVYSPNQVRMRYLLKIQFNFLQLW
modifications: full-length
B2: O35943 (protein, UniProt O35943 1-207, looked up)
chain: MWAFGGRAAVGLLPRTASRASAWVGNPRWREPIVTCGRRGLHVTVNAGATRHAHLNLHYLQILNIKKQSVCVVHLRNLGTLDNPSSLDETAYERLAEETLDSLAEFFEDLADKPYTLEDYDVSFGDGVLTIKLGGDLGTYVINKQTPNKQIWLSSPSSGPKRYDWTGKNWVYSHDGVSLHELLARELTKALNTKLDLSSLAYSGKGT
modifications: full-length
B3: O70126 (protein, UniProt O70126 1-345, looked up)
chain: MAQKENAYPWPYGSKTSQSGLNTLSQRVLRKEPATTSALALVNRFNSQSTAAPGQKLAENKSQGSTASQGSQNKQPFTIDNFEIGRPLGKGKFGNVYLAREKKSRFIVALKILFKSQIEKEGVEHQLRREIEIQAHLKHPNILQLYNYFYDQQRIYLILEYAPRGELYKELQKSRTFDEQRTATIMEELSDALTYCHKKKVIHRDIKPENLLLGLQGELKIADFGWSVHAPSLRRKTMCGTLDYLPPEMIEGRMHNEMVDLWCIGVLCYELMVGNPPFESPSHSETYRRIVKVDLKFPSSVPSGAQDLISKLLKHNPWQRLPLAEVAAHPWVRANSRRVLPPSAL
modifications: full-length
B4: O35594 (protein, UniProt O35594 1-676, looked up)
chain: MSDQIKFIVDSLNKEPFKKNYNLITFDSLGPMQLLQVLNDVLAEIDPKQDVDIREEMPEQTAKRMLNLLGILKYKPPGNATDMSTFRQGLVIGSKPVIYPVLHWLLQRSNELKKRAYLARFLIKLEVPSEFLQDETVADTNKQYEELMEAFKTLHKECEQLKTSGFSTAEIRRDISAMEEEKDQLMKRVERLKKRVETVQNHQRMLKIARQLRVEKEREEFLAQQKQEQKNQLFHAVQRLQRVQNQLKSMRHAAADAKPESLMKRLEEEIKFNSYMVTEKFPKELESKKKELHFLQKVVSEPAMGHSDLLELETKVNEVNTEINQLIEKKMMRNEPIEGKLSLYRQQASIISRKKEAKAEELQETKEKLASLEREVLVKTNQTREFDGTEVLKGDEFKRYVSKLRSKSTVFKKKHQIIAEFKAEFGLLQRTEELLKQRQETIQHQLRTIEEKKGISGYSYTQEELERVSALKSEVDEMKGRTLDDMSEMVKKLNSLVSEKKSALAPVIKELRQLRQKCQELTQECDEKKAQYDSCAAGLESNRSKLEQEVRGLREECLQEESKYHYTNCMIKNLEVELRRATDEMKAYVSSDQQEKRKAIREQYTKNITEQENLGKKLREKQKAVRESHGPNMKQAKMWRDLEQLMECKKQCFLKQQSPASIGQVIQEGGEDRLVL
modifications: full-length
B5: O88451 (protein, UniProt O88451 1-316, looked up)
chain: MWLYLVALVGLWTLLRFFRERQVVSHLQDKYVFITGCDSGFGNLLARQLDRRGMRVLAACLTEKGAEQLRNKTSDRLETVILDVTKTESIVAATQWVKERVGNRGLWGLVNNAGICVFAINEWLKKEDFANILDVNLLGMIEVTLSMLPLVRKARGRVVNISSSMGRVSLCGGGYCISKYGVEAFSDSLRREISYFGVKVAIIEPGGFRTNVSNYERLSHSIEKLWDQTSSEVKEVYDKNFLDSYIKAIQSLTDTCSDDLSVVTDCMEHALTACHPRTRYSAGWDAKLFYLPLSYMPTFLVDAMLYWSSVKPAQAL
modifications: full-length
B6: O88513 (protein, UniProt O88513 1-206, looked up)
chain: MNLSMKQKQEGAQENVKNSPVPRRTLKMIQPSADGSLVGRENELPKGLFKRKLWDDQLASQTSSCGPEANENKDVGDLTQEAFDLISKENPSSQYWKEVAEQRRKALYEALKENEKLHKEIEQKDSEIARLRKENKDLAEVAEHVQYMAEVIERLSNEPLDNFESPDSQEFDSEEEAVEYSELEDSGAGTCAEETVSSSTDARPCT
modifications: full-length
B7: O88803 (protein, UniProt O88803 1-151, looked up)
chain: MIPTTILISAALLSSALAGPWANICASKSSNEIRTCDSYGCGQYSAQRTQRHHPGVDVLCSDGSVVYAPFTGKIVGQEKPYRNKNAINDGIRLSGRGFCVKIFYIKPIKYKGSIKKGEKLGTLLPLQKIYPGIQSHVHVENCDSSDPTAYL
modifications: full-length
B8: O88310 (protein, UniProt O88310 1-313, looked up)
chain: MTQLGFLLFIMVATRGCSAAEENLDTNRWGNSFFSSLPRSCKEIKQEHTKAQDGLYFLRTKNGVIYQTFCDMTTAGGGWTLVASVHENNMRGKCTVGDRWSSQQGNRADYPEGDGNWANYNTFGSAEAATSDDYKNPGYFDIQAENLGIWHVPNKSPLHNWRKSSLLRYRTFTGFLQHLGHNLFGLYKKYPVKYGEGKCWTDNGPALPVVYDFGDARKTASYYSPSGQREFTAGYVQFRVFNNERAASALCAGVRVTGCNTEHHCIGGGGFFPEGNPVQCGDFASFDWDGYGTHNGYSSSRKITEAAVLLFYR
modifications: full-length
B9: O35945 (protein, UniProt O35945 1-501, looked up)
chain: MSSPAQPAVPAPLANLKIQHTKIFINNEWHDSVSSKKFPVLNPATEEVICHVEEGDKADVDKAVKAARQAFQIGSPWRTMDASERGRLLNKLADLMERDRLLLATMESMNAGKVFAHAYLLDVEISIKALQYFAGWADKIHGQTIPSDGNIFTYTRREPIGVCGQIIPWNGPLIIFTWKLGPALSCGNTVVVKPAEQTPLTALHMASLIKEAGFPPGVVNIVPGYGPTAGGAISSHMDIDKVSFTGSTEVGKLIKEAAGKSNLKRVTLELGGKSPCIVFADADLDSAVEFAHQGVFFHQGQICVAASRLFVEESIYDEFVRRSVERAKKYILGNPLNSGINQGPQIDKEQHNKILGLIESGKKEGAKLECGGGRWGNKGFFVQPTVFSNVTDEMRIAKEEIFGPVQQIMKFKSMDDVIKRANNTTYGLAAGVFTKDLDKAITVSSALQAGMVWVNCYLAVPVQCPFGGFKMSGNGRELGEHGLYEYTELKTVAMQISQKNS
modifications: full-length

test system: intracellular proteome of ENR+CD and ENR organoids; assay: LC-MS/MS TMT proteomics of ENR+CD versus ENR organoids; assay type: cell-based, C57BL/6 mice; settings: protein abundance, ENR+CD versus ENR organoids; aggregate of the four sample pairs
Text: Because PCs are highly secretory, protein-rich cells, Applicants sought to assess the total intracellular proteome between conditions through liquid chromatography mass spectrometry (LC-MS/MS)-based proteomics. Applicants quantified relative protein abundance across eight samples using isobaric mass tag labeling from four ENR and four ENR+CD samples (M1-1 through M2-2, first digit denotes biological donor, second digit denotes technical replicate) (FIG. 3A). Samples were processed and analyzed in a single 10-plex by LC-MS/MS (FIG. 9A).
To affirm the reproducibility of the associated proteins in the ENR+CD-enriched proteome, Applicants performed relative quantification within differentiation sets.
Mass spectrometry proteomics sample preparation, sequencing, and quantification. Organoid cell pellets were isolated from Matrigel with mechanical dissociation and washed (cold PBS 5X) to remove residual extracellular protein. Proteins were extracted from cell pellets with 8 M urea (Sigma), reduced with 5 mM DTT (Thermo Fisher Pierce) for 45 minutes, alkylated with 10 mM IAA (Sigma) for 45 minutes in the dark, and double digested with both Lysyl Endopeptidase “LysC” (Wako) and trypsin (Promega) overnight at RT. A small aliquot of cellular lysate was removed from each sample for protein quantification via the Pierce™ BCA Protein Assay Kit (Pierce). After proteolytic digestion, the samples were quenched using formic acid to a final concentration of 1.0% and subsequently desalted on 10 mg OASIS HLB solid phase columns (Waters).
The peptides were labeled with TMT-10 isobaric mass tag reagent according to manufacturer's instructions (ThermoFisher Scientific). The peptides were labeled at a 1:8 ratio of peptide to TMT reagent, followed by 1-hour incubation at RT with bench top shaking at 850 rpm. After incubation, a […] of labeled tryptic peptide was removed from each labeled condition, desalted with C18 stage tips, and analyzed via LC-MS/MS using a Thermo Fisher Q Exactive Plus Hybrid Mass Spectrometer (QE-Plus) coupled to a Thermo Fisher EASY-nLC 1000 liquid chromatograph to ensure isobaric label incorporation >95%. An additional 1.0 μg of labeled tryptic peptide was removed from each channel, mixed together, desalted on a C18 stage tip, and analyzed via LC-MS to ensure equal relative protein loads. During these quality control steps, the labeled peptides were stored, unquenched at −80° C.

Molecule | Average logFC
B1 | −1.403
B2 | −1.193
B3 | −1.165
B4 | 1.151
B5 | −1.416
B6 | −1.337
B7 | 1.443
B8 | 1.203
B9 | −1.329

same assay, conditions: protein abundance, ENR+CD versus ENR organoids; replicate M1-1; log2 ratio

Molecule | M1-1 Log2 Median Normalized
B1 | −1.403
B2 | −0.813
B3 | −1.572
B4 | 0.817
B5 | −1.202
B6 | −1.6
B7 | 1.692
B8 | 1.445
B9 | −1.241

same assay, conditions: protein abundance, ENR+CD versus ENR organoids; replicate M1-2; log2 ratio

Molecule | M1-2 Log2 Median Normalized
B1 | −0.933
B2 | −0.849
B3 | −0.967
B4 | 1.152
B5 | −1.565
B6 | −1.306
B7 | 1.063
B8 | 1.239
B9 | −1.721

same assay, conditions: protein abundance, ENR+CD versus ENR organoids; replicate M2-1; log2 ratio

Molecule | M2-1 Log2 Median Normalized
B1 | −1.4925
B2 | −1.3945
B3 | −0.8395
B4 | 1.1275
B5 | −2.2355
B6 | −0.8435
B7 | 1.4425
B8 | 0.9545
B9 | −1.8345

same assay, conditions: protein abundance, ENR+CD versus ENR organoids; replicate M2-2; log2 ratio

Molecule | M2-2 Log2 Median Normalized
B1 | −1.465
B2 | −1.715
B3 | −1.281
B4 | 1.543
B5 | −0.662
B6 | −1.599
B7 | 1.463
B8 | 1.175
B9 | −0.518

same assay, conditions: up = enriched in ENR+CD, down = enriched in ENR; FDR<0.05 and log fold change cut-off

Molecule | change
B1 | down
B2 | down
B3 | down
B4 | up
B5 | down
B6 | down
B7 | up
B8 | up
B9 | down
